According to the supplement of paper PMC9170038:

Tested on: MS2 coat protein
Assay: apparent KD of MS2 coat protein; designed switch direction (-1 OFF switch, 1 ON switch): 1; higher = weaker reporter binding
Outline: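 Stalled E. coli RNA polymerase transcribed designed RNA switches on Illumina chips, which were then titrated with SNAP-549-labelled MS2 coat protein, doubling from 0.7 or 1.5 nM to 3 µM. Steps lasted from 0.8–1.5 h at the lowest concentration to 10–20 min at the highest. The apparent KD is each design's median over clusters of curve-fitted normalised fluorescence.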

[1] = input ligand: microRNA oligo, concentration not stated
[2] = Eterna round: R95, input ligand: FMN 200 uM
[3] = Eterna round: R95, input ligand: microRNA oligo, concentration not stated
[4] = Eterna round: R95, input ligand: none

Sequence | apparent KD of MS2 coat protein (input ligand: FMN 200 uM) [nM] | apparent KD of MS2 coat protein [1] [nM] | apparent KD of MS2 coat protein (input ligand: none) [nM] | apparent KD of MS2 coat protein [2] [nM] | apparent KD of MS2 coat protein [3] [nM] | apparent KD of MS2 coat protein [4] [nM]
GACAUGAGGAUCACCCAUGUGAGCGCUUCAAUUUGCGCGACACAGGAUAUAGCAUGCUAUGCAUGCUAGAAGGGUGGUAAAGAC [Risoeserxe] (Eterna round: R96, puzzle: Same State NG 3) | 595 | 49.9 | 140 |  |  | 
AAAAGAAACAUGUACCUGAGUACAUGAAAACAUGAGGAUCACCCAUGUAAUAAGCGGGUGGCUCGUCUUAUAAGAAA [JL pocket 27] (Eterna round: R96, puzzle: Sensor for hsa-mir-208a) | 890 | 70.4 | 715 |  |  | 
GGCUAUCGCGUACGAUAGCUUAGGCAUGUACAUGAGGAUCACCCAUGUCAUGUACAGGCUUGUUGCUCGUCUUAUUG [JL-shm-2.37 JL mod] (puzzle: Sensor for hsa-mir-208a) |  |  |  | 202 | 15.8 | 291
AAAAUGUGAUGUUACAUGAGGAUCACCCAUGUAGUGACAACUAAGGAUAUCCGAAAAAAAGGAGAGGAGAAGGUAGGAUCACAA [AK SSNG3-V2-16.2] (Eterna round: R96, puzzle: Same State NG 3) | 18.3 | 33.3 | 46.3 |  |  | 
AGUCCAGCCUGAGCUGGACAAAAGCAUGUACAUGAGGAUCACCCAUGUCAUGUACAAGCUUUUAGCUCGUCUUAAAA [Mat - hsa-mir-208a - Mod of JL - D14] (puzzle: Sensor for hsa-mir-208a) |  |  |  | 455 | 14.6 | 501
GUUACAUGAGGAUCACCCAUGUAUGUGUGGGAGUAAGUGUCUUAGGAUAUCUAUGAAUUAAUUUAAGAGAAGGAAGAUUGUUGU [JMF's solution 73] (Eterna round: R96, puzzle: Same State NG 3) | 107 | 73.3 | 112 |  |  | 
AAAGGAUGAUGUUACAUGAGGAUCACCCAUGUAGUGAUAACUAAGGAUAUGUGUUAAACAAGUUAAUAGAAGGUAGGAUCAUUA [AK SSNG3-V2-7] (Eterna round: R96, puzzle: Same State NG 3) | 73.9 | 52 | 69.4 |  |  | 
UGUUGUUAAUUAGGAUAUGGGCACAUGAGGAUCACCCAUGUAUUUUCGAUGCUAUGUGGAGACGUCUAGAAGGAAUGGCUAACA [SameState NG2 #89] (Eterna round: R96, puzzle: Same State NG 2) | 205 | 212 | 219 |  |  | 
UGAACCUUCACAGGAUAUCAUGCGAAAAUUGCGUGAGAAGGGUGGAUGUGGCGUUCAAAGAUGCACAUGAGGAUCACCCAUGUA [SameState NG1 #49] (Eterna round: R96, puzzle: Same State NG 1) | 162 | 113 | 191 |  |  | 
GUAGCAUACCGAGGAUAUUCAUAUUAACAUGAGGAUCACCCAUGUUUAGGCCGAUUACGGCCUUGGGAGAAGGCGGAAUGCUAC [Xeonanis - 20 Mod22] (Eterna round: R96, puzzle: Same State NG 2) | 10.9 | 14.9 | 25.1 |  |  | 
AGUCCAGCCUGAGCUGGACAAAAGCAUGUACAUGAGGAUCACCCAUGUUCAUGUACAAGCUUUUUGCUCGUCUUAAU [salish99_208a_r3_027] (puzzle: Sensor for hsa-mir-208a) |  |  |  | 480 | 14 | 643
CUGAGAUGUCAAGGAUAUCACGUCGAUUAGACGUGAGAAGGUGAUCUGUACAUGAGGAUCACCCAUGUGUUACAUGGAACUCAG [Brourd's SSNG1/1-A2 mod 10] (Eterna round: R96, puzzle: Same State NG 1) | 184 | 30.9 | 53.9 |  |  | 
CUAAAACAUGAGGAUCACCCAUGUCAACAAAGUCGAGGAUAUGGGCAAAUAAAAUAAGAACCAGAAGGCGAAUAAG [salish99_SS1_r3_013] (puzzle: Same State 1) |  |  |  | 81.9 | 274 | 543
UGACACACGGCAGGAUAUGCUUAGCAAAGCUAAGCAGAAGGGCCUCAUGUCGUGGAAACGUGACAUGAGGAUCACCCAUGUCGC [Omei SS(NG)1 Cv4] (Eterna round: R96, puzzle: Same State NG 1) | 122 | 6.01 | 17.7 |  |  | 
GAGUAGUUGAUAGGAUAUUGAUUGUUAUAGGAUCAAGAAGGAUCUAACAUGAGGAUCACCCAUGUAGGACUAUUCCUGUGUAUC [Parity 84 - Jieux - Same State NG 1] (Eterna round: R96, puzzle: Same State NG 1) |  | 16.9 |  |  |  | 
AAAGCACAUGAGGAUCACCCAUGUGGAAAUAACACAGGAUAUCCUGCCGAAACUAAGGUGGGAGAAGGGUGACCUA [Iszagece] (puzzle: Same State 1) |  |  |  | 147 | 54 | 55.9
CGGUGUGAGAAAGGAUAUGUUCGCUAGUCGCGAGCAGAAGGUUCUGCGCGCUGCUAUACGAACAUGAGGAUCACCCAUGUAAAA [Laqu] (Eterna round: R96, puzzle: Same State NG 1) | 130 | 11.8 | 69.2 |  |  | 
GGUAGGUUACUACCAAACAUGAGGAUCACCCAUGUAAGUGGGAAGGAUAUGGUACCUAUUUGGUACCAGAAGGUCUAAUUAAUU [Fiskers NG3ss - 2] (Eterna round: R96, puzzle: Same State NG 3) | 444 | 59.9 | 1230 |  |  | 
GGUACCAACACAGGAUAUGCUAUCCUUUGGGUAGCAGAAGGGUGGUACAUGAGGAUCACCCAUGUGGUGCCAGGGCGUGAGCCC [JL SSNG1 1.95] (Eterna round: R96, puzzle: Same State NG 1) | 383 | 1190 | 4440 |  |  | 
AAUUAUUAACAUGAGGAUCACCCAUGUAUCAUGAUUACUAUUAUUAGUAUCAUGAAUAGGGUUUUUGCUCGUCUUAU [ben_bell_2] (puzzle: Sensor for hsa-mir-208a version 2) |  |  |  | 85.9 | 26.2 | 53.5
GUGGCCCAGGCACAGGAUAUGUUUCUCGUAACAUGAGGAUCACCCAUGUGCCUAUGAGAUUUAAUGCAGAAGGGUGCACGCCACA [Mat - Same State 2 - Mod of UCT - D78] (puzzle: Same State 2) |  |  |  | 18.8 | 164 | 199
AUUAAACAUGAGGAUCACCCAUGUCAACAAAGUCGAGGAUAUGGGCAUAUUAUCUUAUUACCAGAAGGCGAAUAAU [salish99_ss1_r3_087] (puzzle: Same State 1) |  |  |  |  | 326 | 
ACCCAAGGUAUAUGGGAACAAGCUUUUUAACAUGAGGAUCACCCAUGUACUCGUCUUAUAAGCAGUCGAAAGACUGC [Sensor 100 - 6] (puzzle: Sensor for hsa-mir-208a) |  |  |  | 619 | 16.1 | 831
